{"source": "patent US20090227507A1", "about": "“Angiotensin (1-7) Dosage Forms and Uses Thereof” (UNIVERSITY OF SOUTHERN CALIFORNIA, priority 2008, published 2009)", "key": {"[1]": {"experiment": "Vital signs (blood pressure, pulse rate, respiration rate, oral temperature) in healthy men", "type": "in vivo, human", "conditions": "for oral body temperature, Subject 042 / oral body temperature, Subject 046 / oral body temperature, Subject 053 / oral body temperature, Subject 055: 300 μg/kg", "procedure": "Safety assessments during the study period included vital sign measurement (systolic [SBP] and diastolic [DBP] blood pressure, heart rate [HR], respiratory rate [RR] in the sitting position, and oral temperature), clinical chemistry, hematology, urinalysis, 12-lead electrocardiogram (ECG) in the supine position, and AE monitoring. Clinical chemistry/hematology samples were drawn within a 30-minute period prior to dosing on selected dosing days.\nVital signs were measured immediately prior to dosing, every hour for the first 6 hours post-dosing, then every 3 hours up to 12 hours post-dosing.\nVital signs, including SBP, DBP, RR, and HR were done at Screening, on each day immediately before and at 1, 3, and 6 hours after each SC injection, and at 24 hours after the last injection on Day 7. On Day 1, they were taken every hour for the first 6 hours, then every 3 hours up to 12 hours after the dose."}, "[2]": {"experiment": "Clinical chemistry in healthy men", "conditions": "for Potassium shift H-N, number of subjects / Potassium shift L-N, number of subjects / Potassium shift N-H, number of subjects / Potassium shift N-L, number of subjects: Chemistry; for AST/SGOT High/Low Normal/Abnormal: Subject 027, 200 μg/kg", "quoted_text": "Safety evaluations are based on AEs, PEs, vital signs, temperature, and laboratory results from baseline to study completion. Laboratory measurements were conducted by a local clinical laboratory. Using standard procedures, blood samples were drawn or urine collected from subjects for the following laboratory tests:\nAspartate aminotransferase (AST), alanine aminotransferase (ALT), gamma, glutamyltranferase (GGT), creatinine, creatine kinase, sodium, potassium, bicarbonate (CO2), chloride, glucose, magnesium, calcium, inorganic phosphorous, blood urea nitrogen (BUN), total protein, albumin, total bilirubin, direct and indirect bilirubin, uric acid, and alkaline phosphatase,"}, "[3]": {"conditions": "approximately 6 hours after Day 3 study medication"}, "[4]": {"conditions": "200 μg/kg, N = 9, baseline to Day 8"}, "[5]": {"conditions": "300 μg/kg, N = 8, baseline to Day 8"}}}
{"substance": "Asp-Arg-Val-Tyr-Ile-His-Pro [USB003]", "values": [{"measurement": "change from baseline in mean body temperatures", "setting": "[1]; 300 μg/kg dose group compared to 200 μg/kg, especially 6-hour post-dose, Study Day 3", "value": "clearly notable increase"}, {"measurement": "oral body temperature, Subject 042", "setting": "[1]; Day 1, 4-hour post-dose", "value": 37.8, "unit": "°C"}, {"measurement": "oral body temperature, Subject 042", "setting": "[1]; Day 1, 9-hour post-dose", "value": 38.1, "unit": "°C"}, {"measurement": "oral body temperature, Subject 042", "setting": "[1]; Day 1, one hour after first dose", "value": 37.4, "unit": "°C"}, {"measurement": "oral body temperature, Subject 042", "setting": "[1]; Day 2, 6-hour-post-dose", "value": 38.7, "unit": "°C"}, {"measurement": "oral body temperature, Subject 042", "setting": "[1]; Day 2 pre-dose", "value": 37.4, "unit": "°C"}, {"measurement": "oral body temperature, Subject 046", "setting": "[1]; Day 2 pre-dose", "value": 35.9, "unit": "°C"}, {"measurement": "oral body temperature, Subject 046", "setting": "[1]; Day 3, 6-hour post-dose", "value": 37.9, "unit": "°C"}, {"measurement": "oral body temperature, Subject 046", "setting": "[1]; Day 4 pre-dose", "value": 36.8, "unit": "°C"}, {"measurement": "oral body temperature, Subject 053", "setting": "[1]; Day 4 pre-dose", "value": 36.4, "unit": "°C"}, {"measurement": "oral body temperature, Subject 055", "setting": "[1]; Day 4 pre-dose", "value": 37.1, "unit": "°C"}, {"measurement": "oral body temperature, Subject 053", "setting": "[1]; Day 7 pre-dose", "value": 37.0, "unit": "°C"}, {"measurement": "oral body temperature, Subject 042", "setting": "[1]; Day 8", "value": 36.9, "unit": "°C"}, {"measurement": "oral body temperature, Subject 053", "setting": "[1]; [3]", "value": 37.8, "unit": "°C"}, {"measurement": "oral body temperature, Subject 055", "setting": "[1]; [3]", "value": 38.0, "unit": "°C"}, {"measurement": "oral body temperature, Subject 053", "setting": "[1]; approximately 6 hours after Day 6 study medication", "value": 37.9, "unit": "°C"}, {"measurement": "oral body temperature, Subject 046", "setting": "[1]; approximately 7 hours and 45 minutes after first dosing", "value": 37.8, "unit": "°C"}, {"measurement": "oral body temperature, Subject 046", "setting": "[1]; approximately 14 hours after the first dose", "value": 38.0, "unit": "°C"}, {"measurement": "oral body temperature, Subject 046", "setting": "[1]; one hour after first dose", "value": 37.3, "unit": "°C"}, {"measurement": "changes from baseline for the mean RR", "setting": "[1]; all measured time points", "value": "no clinically meaningful changes"}, {"measurement": "mean change in pulse rate", "setting": "[1]; by 3-hour post-dose in all treatment groups, continuing in the USB003 groups at last vital sign of the day", "value": "mildly notable increase"}, {"measurement": "change in mean SBP and DBP compared to baseline", "setting": "[1]; no apparent difference in dose groups", "value": "mild decrease"}, {"measurement": "ALT (SGPT) shift H-N, number of subjects", "setting": "[2]; [4]", "value": "— (“—” = 0)"}, {"measurement": "ALT (SGPT) shift L-N, number of subjects", "setting": "[2]; [4]", "value": "— (“—” = 0)"}, {"measurement": "ALT (SGPT) shift N-H, number of subjects", "setting": "[2]; [4]", "value": 1}, {"measurement": "ALT (SGPT) shift N-L, number of subjects", "setting": "[2]; [4]", "value": "— (“—” = 0)"}, {"measurement": "AST (SGOT) shift H-N, number of subjects", "setting": "[2]; [4]", "value": "— (“—” = 0)"}, {"measurement": "AST (SGOT) shift L-N, number of subjects", "setting": "[2]; [4]", "value": "— (“—” = 0)"}, {"measurement": "AST (SGOT) shift N-H, number of subjects", "setting": "[2]; [4]", "value": 1}, {"measurement": "AST (SGOT) shift N-L, number of subjects", "setting": "[2]; [4]", "value": "— (“—” = 0)"}, {"measurement": "BUN shift H-N, number of subjects", "setting": "[2]; [4]", "value": "— (“—” = 0)"}, {"measurement": "BUN shift L-N, number of subjects", "setting": "[2]; [4]", "value": 1}, {"measurement": "BUN shift N-H, number of subjects", "setting": "[2]; [4]", "value": "— (“—” = 0)"}, {"measurement": "BUN shift N-L, number of subjects", "setting": "[2]; [4]", "value": "— (“—” = 0)"}, {"measurement": "Magnesium shift H-N, number of subjects", "setting": "[2]; [4]", "value": "— (“—” = 0)"}, {"measurement": "Magnesium shift L-N, number of subjects", "setting": "[2]; [4]", "value": "— (“—” = 0)"}, {"measurement": "Magnesium shift N-H, number of subjects", "setting": "[2]; [4]", "value": "— (“—” = 0)"}, {"measurement": "Magnesium shift N-L, number of subjects", "setting": "[2]; [4]", "value": 1}, {"measurement": "Total CPK shift H-N, number of subjects", "setting": "[2]; [4]", "value": 1}, {"measurement": "Total CPK shift L-N, number of subjects", "setting": "[2]; [4]", "value": "— (“—” = 0)"}, {"measurement": "Total CPK shift N-H, number of subjects", "setting": "[2]; [4]", "value": "— (“—” = 0)"}, {"measurement": "Total CPK shift N-L, number of subjects", "setting": "[2]; [4]", "value": "— (“—” = 0)"}, {"measurement": "ALT, Subject 009", "setting": "[2]; 200 μg/kg, Day 8", "value": 103, "unit": "IU/L"}, {"measurement": "AST, Subject 009", "setting": "[2]; 200 μg/kg, Day 8", "value": 66, "unit": "IU/L"}, {"measurement": "ALT, Subject 009", "setting": "[2]; 200 μg/kg, Day 14", "value": 61, "unit": "IU/L"}, {"measurement": "AST, Subject 009", "setting": "[2]; 200 μg/kg, Day 14", "value": 29, "unit": "IU/L"}, {"measurement": "ALT (SGPT) shift H-N, number of subjects", "setting": "[2]; [5]", "value": "— (“—” = 0)"}, {"measurement": "ALT (SGPT) shift L-N, number of subjects", "setting": "[2]; [5]", "value": "— (“—” = 0)"}, {"measurement": "ALT (SGPT) shift N-H, number of subjects", "setting": "[2]; [5]", "value": "— (“—” = 0)"}, {"measurement": "ALT (SGPT) shift N-L, number of subjects", "setting": "[2]; [5]", "value": "— (“—” = 0)"}, {"measurement": "AST (SGOT) shift H-N, number of subjects", "setting": "[2]; [5]", "value": "— (“—” = 0)"}, {"measurement": "AST (SGOT) shift L-N, number of subjects", "setting": "[2]; [5]", "value": "— (“—” = 0)"}, {"measurement": "AST (SGOT) shift N-H, number of subjects", "setting": "[2]; [5]", "value": "— (“—” = 0)"}, {"measurement": "AST (SGOT) shift N-L, number of subjects", "setting": "[2]; [5]", "value": "— (“—” = 0)"}, {"measurement": "BUN shift H-N, number of subjects", "setting": "[2]; [5]", "value": "— (“—” = 0)"}, {"measurement": "BUN shift L-N, number of subjects", "setting": "[2]; [5]", "value": 1}, {"measurement": "BUN shift N-H, number of subjects", "setting": "[2]; [5]", "value": "— (“—” = 0)"}, {"measurement": "BUN shift N-L, number of subjects", "setting": "[2]; [5]", "value": "— (“—” = 0)"}, {"measurement": "Magnesium shift H-N, number of subjects", "setting": "[2]; [5]", "value": "— (“—” = 0)"}, {"measurement": "Magnesium shift L-N, number of subjects", "setting": "[2]; [5]", "value": 1}, {"measurement": "Magnesium shift N-H, number of subjects", "setting": "[2]; [5]", "value": "— (“—” = 0)"}, {"measurement": "Magnesium shift N-L, number of subjects", "setting": "[2]; [5]", "value": "— (“—” = 0)"}, {"measurement": "Total CPK shift H-N, number of subjects", "setting": "[2]; [5]", "value": "— (“—” = 0)"}, {"measurement": "Total CPK shift L-N, number of subjects", "setting": "[2]; [5]", "value": "— (“—” = 0)"}, {"measurement": "Total CPK shift N-H, number of subjects", "setting": "[2]; [5]", "value": "— (“—” = 0)"}, {"measurement": "Total CPK shift N-L, number of subjects", "setting": "[2]; [5]", "value": "— (“—” = 0)"}, {"measurement": "Potassium shift H-N, number of subjects", "setting": "[2]; [4]", "value": "— (“—” = 0)"}, {"measurement": "Potassium shift L-N, number of subjects", "setting": "[2]; [4]", "value": "— (“—” = 0)"}, {"measurement": "Potassium shift N-H, number of subjects", "setting": "[2]; [4]", "value": "— (“—” = 0)"}, {"measurement": "Potassium shift N-L, number of subjects", "setting": "[2]; [4]", "value": "— (“—” = 0)"}, {"measurement": "Potassium shift H-N, number of subjects", "setting": "[2]; [5]", "value": 1}, {"measurement": "Potassium shift L-N, number of subjects", "setting": "[2]; [5]", "value": "— (“—” = 0)"}, {"measurement": "Potassium shift N-H, number of subjects", "setting": "[2]; [5]", "value": "— (“—” = 0)"}, {"measurement": "Potassium shift N-L, number of subjects", "setting": "[2]; [5]", "value": 1}, {"measurement": "AST/SGOT High/Low Normal/Abnormal", "setting": "[2]; Day 7 U (unscheduled)", "value": "N"}, {"measurement": "AST/SGOT High/Low Normal/Abnormal", "setting": "[2]; Day 8", "value": "N"}, {"measurement": "mean change from baseline on any serum chemistry evaluations", "setting": "[2]; baseline to Day 4 or Day 8", "value": "no notable effects"}]}
